Laboratory results from the supplement of paper PMC9112550, “Optimization of the antimicrobial peptide Bac7 by deep mutational scanning” (BMC Biology, 2022).

test system: Escherichia coli TOP10; experiment: shrunken log2 fold change of peptide-encoding DNA abundance (4.5 h post-induction vs induction); higher = less antimicrobial activity (less host growth inhibition); conditions: time post-induction: 4.5 h; library: site-saturation at positions 5, 18, 19, 20
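Also: peptides expressed intracellularly from a pBAD plasmid library in pooled LB shake-flask culture, induced with 0.3% L-arabinose, DNA abundance read by NGS, three biological replicates, DESeq2 with apeglm shrinkage.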

Row | Sequence | shrunken log2 fold change
1 | RRIRLRPPRLPRPRPRPDDFPRP | -0.0359
2 | RRIRLRPPRLPRPRPRPDDGPRP | -0.00277
3 | RRIRLRPPRLPRPRPRPDEQPRP | -0.017
4 | RRIRLRPPRLPRPRPRPDERPRP | 0.0169
5 | RRIRLRPPRLPRPRPRPDFNPRP | -0.444
6 | RRIRLRPPRLPRPRPRPDGGPRP | -0.000524
7 | RRIRLRPPRLPRPRPRPDIEPRP | 0.0333
8 | RRIRLRPPRLPRPRPRPDIIPRP | -0.173
9 | RRIRLRPPRLPRPRPRPDKFPRP | -0.26
10 | RRIRLRPPRLPRPRPRPDKTPRP | -0.146
11 | RRIRLRPPRLPRPRPRPDMGPRP | 0.0446
12 | RRIRLRPPRLPRPRPRPDPRPRP | 0.603
13 | RRIRLRPPRLPRPRPRPDQKPRP | 0.0416
14 | RRIRLRPPRLPRPRPRPDQPPRP | -0.129
15 | RRIRLRPPRLPRPRPRPDRFPRP | -0.00452
16 | RRIRLRPPRLPRPRPRPDSGPRP | -0.00166
17 | RRIRLRPPRLPRPRPRPDTAPRP | 0.0121
18 | RRIRLRPPRLPRPRPRPDVIPRP | -0.161
19 | RRIRLRPPRLPRPRPRPDYPPRP | -0.307
20 | RRIRLRPPRLPRPRPRPEASPRP | 0.133
21 | RRIRLRPPRLPRPRPRPECNPRP | -0.0178
22 | RRIRLRPPRLPRPRPRPEDAPRP | 0.368
23 | RRIRLRPPRLPRPRPRPEFWPRP | 0.417
24 | RRIRLRPPRLPRPRPRPEGVPRP | 0.568
25 | RRIRLRPPRLPRPRPRPEKSPRP | 0.123

Row | Sequence | shrunken log2 fold change
26 | RRIRLRPPRLPRPRPRPELSPRP | -0.113
27 | RRIRLRPPRLPRPRPRPENAPRP | -0.000678
28 | RRIRLRPPRLPRPRPRPENHPRP | -0.126
29 | RRIRLRPPRLPRPRPRPENKPRP | -0.328
30 | RRIRLRPPRLPRPRPRPERRPRP | -0.0189
31 | RRIRLRPPRLPRPRPRPERSPRP | 0.293
32 | RRIRLRPPRLPRPRPRPETTPRP | 0.182
33 | RRIRLRPPRLPRPRPRPEVDPRP | -0.0786
34 | RRIRLRPPRLPRPRPRPEWMPRP | -0.00172
35 | RRIRLRPPRLPRPRPRPEWSPRP | -0.178
36 | RRIRLRPPRLPRPRPRPEYGPRP | -0.029
37 | RRIRLRPPRLPRPRPRPFAEPRP | 0.102
38 | RRIRLRPPRLPRPRPRPFCEPRP | -0.157
39 | RRIRLRPPRLPRPRPRPFCPPRP | -0.355
40 | RRIRLRPPRLPRPRPRPFCYPRP | -0.465
41 | RRIRLRPPRLPRPRPRPFDCPRP | 0.00355
42 | RRIRLRPPRLPRPRPRPFEKPRP | -0.0511
43 | RRIRLRPPRLPRPRPRPFFIPRP | -0.396
44 | RRIRLRPPRLPRPRPRPFFLPRP | -0.282
45 | RRIRLRPPRLPRPRPRPFFSPRP | -0.0767
46 | RRIRLRPPRLPRPRPRPFGLPRP | -0.114
47 | RRIRLRPPRLPRPRPRPFGNPRP | -0.498
48 | RRIRLRPPRLPRPRPRPFHAPRP | -0.219
49 | RRIRLRPPRLPRPRPRPFHIPRP | -0.292
50 | RRIRLRPPRLPRPRPRPFHMPRP | -0.16

Row | Sequence | shrunken log2 fold change
51 | RRIRLRPPRLPRPRPRPFHPPRP | -0.0146
52 | RRIRLRPPRLPRPRPRPFIRPRP | -0.245
53 | RRIRLRPPRLPRPRPRPFIYPRP | -0.504
54 | RRIRLRPPRLPRPRPRPFKFPRP | -0.202
55 | RRIRLRPPRLPRPRPRPFKHPRP | -0.156
56 | RRIRLRPPRLPRPRPRPFLFPRP | -0.34
57 | RRIRLRPPRLPRPRPRPFLVPRP | -0.338
58 | RRIRLRPPRLPRPRPRPFMFPRP | -0.306
59 | RRIRLRPPRLPRPRPRPFMTPRP | -0.824
60 | RRIRLRPPRLPRPRPRPFMYPRP | -1.5
61 | RRIRLRPPRLPRPRPRPFNGPRP | -0.0434
62 | RRIRLRPPRLPRPRPRPFNHPRP | -0.249
63 | RRIRLRPPRLPRPRPRPFNIPRP | -0.0972
64 | RRIRLRPPRLPRPRPRPFQDPRP | 0.000192
65 | RRIRLRPPRLPRPRPRPFRDPRP | 0.00463
66 | RRIRLRPPRLPRPRPRPFRHPRP | -0.322
67 | RRIRLRPPRLPRPRPRPFRLPRP | -0.0872
68 | RRIRLRPPRLPRPRPRPFSQPRP | -0.0811
69 | RRIRLRPPRLPRPRPRPFSSPRP | -0.000451
70 | RRIRLRPPRLPRPRPRPFVHPRP | -0.308
71 | RRIRLRPPRLPRPRPRPFVTPRP | -0.303
72 | RRIRLRPPRLPRPRPRPFYFPRP | -0.432
73 | RRIRLRPPRLPRPRPRPFYQPRP | -0.161
74 | RRIRLRPPRLPRPRPRPGALPRP | 0.0546
75 | RRIRLRPPRLPRPRPRPGCGPRP | 0.49
